Earlier results in patent US8759613B1, “Method of producing a lunasin polypeptide in plants” (University of Louisville Research Foundation, Inc., priority 2009, dated 2014).

Settings: oral administration; digestion

In the case of “lunasin: polypeptide of 43-44 amino acids from soybean with a C-terminal end of nine consecutive aspartic acid residues (MSKWQHQQDSCRKQLQGVNLTPCEKHIMEKIQGRGDDDDDDDDD; Glycine max)”, the orally-administered lunasin degraded is given as no more than 95%.
